Values quoted from earlier work, collected in paper doi:10.1101/2025.04.17.649309.

Biological target: Cys12 (UniProt position 12, YTKETCPYCHR)

Substance: Glutaredoxin 3 (Grx3) (Escherichia coli)
- pKa: 4.1
